# T1: human beta-Klotho (human, UniProt Q86Z14 1-1044)
# T1 sequence (looked up): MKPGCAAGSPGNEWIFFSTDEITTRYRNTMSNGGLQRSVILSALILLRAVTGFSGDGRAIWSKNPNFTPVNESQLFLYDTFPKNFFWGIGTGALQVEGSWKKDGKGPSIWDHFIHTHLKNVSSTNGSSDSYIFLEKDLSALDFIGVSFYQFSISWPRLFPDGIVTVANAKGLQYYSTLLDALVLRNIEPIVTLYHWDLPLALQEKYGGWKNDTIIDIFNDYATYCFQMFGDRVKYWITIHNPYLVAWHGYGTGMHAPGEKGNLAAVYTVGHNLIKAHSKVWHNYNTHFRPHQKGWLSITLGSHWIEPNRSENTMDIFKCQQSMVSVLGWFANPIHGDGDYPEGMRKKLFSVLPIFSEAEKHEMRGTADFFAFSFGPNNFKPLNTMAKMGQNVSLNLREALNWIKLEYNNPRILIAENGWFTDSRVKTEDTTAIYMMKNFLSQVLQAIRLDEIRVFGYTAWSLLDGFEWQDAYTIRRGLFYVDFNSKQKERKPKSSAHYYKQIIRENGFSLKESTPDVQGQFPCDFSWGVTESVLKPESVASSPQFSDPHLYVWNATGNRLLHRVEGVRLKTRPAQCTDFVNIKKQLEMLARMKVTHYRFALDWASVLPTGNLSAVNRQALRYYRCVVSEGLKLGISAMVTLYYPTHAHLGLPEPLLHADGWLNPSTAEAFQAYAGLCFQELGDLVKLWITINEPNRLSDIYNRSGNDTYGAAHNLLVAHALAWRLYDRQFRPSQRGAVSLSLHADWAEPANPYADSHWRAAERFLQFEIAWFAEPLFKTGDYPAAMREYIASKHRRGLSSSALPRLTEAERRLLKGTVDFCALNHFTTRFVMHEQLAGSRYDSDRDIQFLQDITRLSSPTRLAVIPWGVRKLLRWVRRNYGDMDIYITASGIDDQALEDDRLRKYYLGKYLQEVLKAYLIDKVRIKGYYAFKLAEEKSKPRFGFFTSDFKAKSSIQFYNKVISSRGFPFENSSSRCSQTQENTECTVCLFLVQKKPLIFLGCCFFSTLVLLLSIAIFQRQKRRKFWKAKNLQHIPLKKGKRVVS
# Molecular target: T1, human beta-Klotho
# Assay: cell-based or functional assay
row,pERK-HEK293-Beta-klotho without HSA [EC50 (nM)] Median Value,Binder
1,3.3 nM,(Q15F) Met-FGF21 (ligand) MHPIPDSSPLLQFGGFVRQRYLYTDDAQQTEAHLEIREDGTVGGAADQSPESLLQLKALKPGVIQILGVKTSRFLCQRPDGALYGSLHFDPEACSFRELLLEDGYNVYQSEAHGLPLHLPGNKSPHRDPAPRGPARFLPLPGLPPALPEPPGILAPQPPDVGSSDPLSMVGPSQGRSPSYAS
2,100 nM,(M168A) Met-FGF21 (ligand) MHPIPDSSPLLQFGGQVRQRYLYTDDAQQTEAHLEIREDGTVGGAADQSPESLLQLKALKPGVIQILGVKTSRFLCQRPDGALYGSLHFDPEACSFRELLLEDGYNVYQSEAHGLPLHLPGNKSPHRDPAPRGPARFLPLPGLPPALPEPPGILAPQPPDVGSSDPLSAVGPSQGRSPSYAS
3,1.5 nM,"S71C Met-FGF21 derivative of Examples 6 and 12 (ligand, S-71-({2-[2-(2-{2-[2-(2-{2-[(S)-4-carboxy-4-(19-carboxy-nonadecanoylamino)-butyrylamino]-ethoxy}-ethoxy)-acetylamino]-ethoxy}-ethoxy)-acetylamino]-ethylcarbamoyl}-methyl) on the thiol of Cys71) MHPIPDSSPLLQFGGQVRQRYLYTDDAQQTEAHLEIREDGTVGGAADQSPESLLQLKALKPGVIQILGVKTCRFLCQRPDGALYGSLHFDPEACSFRELLLEDGYNVYQSEAHGLPLHLPGNKSPHRDPAPRGPARFLPLPGLPPALPEPPGILAPQPPDVGSSDPLSMVGPSQGRSPSYAS"
4,100 nM,(M168S) Met-FGF21 (ligand) MHPIPDSSPLLQFGGQVRQRYLYTDDAQQTEAHLEIREDGTVGGAADQSPESLLQLKALKPGVIQILGVKTSRFLCQRPDGALYGSLHFDPEACSFRELLLEDGYNVYQSEAHGLPLHLPGNKSPHRDPAPRGPARFLPLPGLPPALPEPPGILAPQPPDVGSSDPLSSVGPSQGRSPSYAS
5,6.7 nM,(D24K) Met-FGF21 (ligand) MHPIPDSSPLLQFGGQVRQRYLYTKDAQQTEAHLEIREDGTVGGAADQSPESLLQLKALKPGVIQILGVKTSRFLCQRPDGALYGSLHFDPEACSFRELLLEDGYNVYQSEAHGLPLHLPGNKSPHRDPAPRGPARFLPLPGLPPALPEPPGILAPQPPDVGSSDPLSMVGPSQGRSPSYAS
6,3.3 nM,"(S71C, D102E, N121Q, L166F, S167G, M168L, 169aT, P171L, S172E, Q173A, G174V, Y179F, A180E, S181K) Ala-FGF21 (ligand) AHPIPDSSPLLQFGGQVRQRYLYTDDAQQTEAHLEIREDGTVGGAADQSPESLLQLKALKPGVIQILGVKTCRFLCQRPDGALYGSLHFDPEACSFRELLLEEGYNVYQSEAHGLPLHLPGQKSPHRDPAPRGPARFLPLPGLPPALPEPPGILAPQPPDVGSSDPFGLVTGLEAVRSPSFEK"
7,2 nM,"(S71C, N121Q, L166F, S167G, M168L, 169aT, P171L, S172E, Q173A, G174V, Y179F, A180E, S181K) Ala-FGF21 (ligand) AHPIPDSSPLLQFGGQVRQRYLYTDDAQQTEAHLEIREDGTVGGAADQSPESLLQLKALKPGVIQILGVKTCRFLCQRPDGALYGSLHFDPEACSFRELLLEDGYNVYQSEAHGLPLHLPGQKSPHRDPAPRGPARFLPLPGLPPALPEPPGILAPQPPDVGSSDPFGLVTGLEAVRSPSFEK"
8,3.9 nM,"(169aT, 171L, 172E, 173A, 174V, 179F, 180E, 181K) Met-FGF21 (ligand) MHPIPDSSPLLQFGGQVRQRYLYTDDAQQTEAHLEIREDGTVGGAADQSPESLLQLKALKPGVIQILGVKTSRFLCQRPDGALYGSLHFDPEACSFRELLLEDGYNVYQSEAHGLPLHLPGNKSPHRDPAPRGPARFLPLPGLPPALPEPPGILAPQPPDVGSSDPLSMVTGLEAVRSPSFEK"

# The next lines start with the binder.
row,Binder,pERK-HEK293-Beta-klotho without HSA [EC50 (nM)] Median Value
1,A26E Met-FGF21 (ligand) MHPIPDSSPLLQFGGQVRQRYLYTDDEQQTEAHLEIREDGTVGGAADQSPESLLQLKALKPGVIQILGVKTSRFLCQRPDGALYGSLHFDPEACSFRELLLEDGYNVYQSEAHGLPLHLPGNKSPHRDPAPRGPARFLPLPGLPPALPEPPGILAPQPPDVGSSDPLSMVGPSQGRSPSYAS,4.7 nM
2,"(179F, 180E, 181R) Met-FGF21 (ligand) MHPIPDSSPLLQFGGQVRQRYLYTDDAQQTEAHLEIREDGTVGGAADQSPESLLQLKALKPGVIQILGVKTSRFLCQRPDGALYGSLHFDPEACSFRELLLEDGYNVYQSEAHGLPLHLPGNKSPHRDPAPRGPARFLPLPGLPPALPEPPGILAPQPPDVGSSDPLSMVGPSQGRSPSFER",5.9 nM
3,"S71C Met-FGF21 derivative of Example 13 (ligand, S-71-[1-(2-{2-[2-(2-{2-[2-(2-{2-[(S)-4-carboxy-4-(17-carboxy-heptadecanoylamino)-butyrylamino]-ethoxy}-ethoxy)-acetylamino]-ethoxy}-ethoxy)-acetylamino]-ethylcarbamoyl}-ethyl)-2,5-dioxo-pyrrolidin-3-yl] on the thiol of Cys71) MHPIPDSSPLLQFGGQVRQRYLYTDDAQQTEAHLEIREDGTVGGAADQSPESLLQLKALKPGVIQILGVKTCRFLCQRPDGALYGSLHFDPEACSFRELLLEDGYNVYQSEAHGLPLHLPGNKSPHRDPAPRGPARFLPLPGLPPALPEPPGILAPQPPDVGSSDPLSMVGPSQGRSPSYAS",4.8 nM
4,"(Q28R, A31 E) Met-FGF21 (ligand) MHPIPDSSPLLQFGGQVRQRYLYTDDAQRTEEHLEIREDGTVGGAADQSPESLLQLKALKPGVIQILGVKTSRFLCQRPDGALYGSLHFDPEACSFRELLLEDGYNVYQSEAHGLPLHLPGNKSPHRDPAPRGPARFLPLPGLPPALPEPPGILAPQPPDVGSSDPLSMVGPSQGRSPSYAS",1 nM
5,"(K56R, K59R, K69R, K122R) Met-FGF21 derivative of Example 7 (ligand, N-alpha-1-[2-(2-{2-[2-(2-{2-[(S)-4-carboxy-4-(17-carboxy-heptadecanoylamino)-butyrylamino]-ethoxy}-ethoxy)-acetylamino]-ethoxy}-ethoxy)-acetyl] on the alpha amino group of the N-terminal Met) MHPIPDSSPLLQFGGQVRQRYLYTDDAQQTEAHLEIREDGTVGGAADQSPESLLQLRALRPGVIQILGVRTSRFLCQRPDGALYGSLHFDPEACSFRELLLEDGYNVYQSEAHGLPLHLPGNRSPHRDPAPRGPARFLPLPGLPPALPEPPGILAPQPPDVGSSDPLSMVGPSQGRSPSYAS",1.4 nM
6,"S71C Met-FGF21 derivative of Example 14 (ligand, S-71-({2-[2-(2-{2-[2-(2-{2-[(S)-4-carboxy-4-(17-carboxy-heptadecanoylamino)-butyrylamino]-ethoxy}-ethoxy)-acetylamino]-ethoxy}-ethoxy)-acetylamino]-ethylcarbamoyl}-methyl) on the thiol of Cys71) MHPIPDSSPLLQFGGQVRQRYLYTDDAQQTEAHLEIREDGTVGGAADQSPESLLQLKALKPGVIQILGVKTCRFLCQRPDGALYGSLHFDPEACSFRELLLEDGYNVYQSEAHGLPLHLPGNKSPHRDPAPRGPARFLPLPGLPPALPEPPGILAPQPPDVGSSDPLSMVGPSQGRSPSYAS",2.9 nM
7,"S71C Met-FGF21 derivative of Example 5 (ligand, S-71-[1-(2-{2-[2-(2-{2-[2-(2-{2-[(S)-4-carboxy-4-(19-carboxy-nonadecanoylamino)-butyrylamino]-ethoxy}-ethoxy)-acetylamino]-ethoxy}-ethoxy)-acetylamino]-ethylcarbamoyl}-ethyl)-2,5-dioxo-pyrrolidin-3-yl] on the thiol of Cys71) MHPIPDSSPLLQFGGQVRQRYLYTDDAQQTEAHLEIREDGTVGGAADQSPESLLQLKALKPGVIQILGVKTCRFLCQRPDGALYGSLHFDPEACSFRELLLEDGYNVYQSEAHGLPLHLPGNKSPHRDPAPRGPARFLPLPGLPPALPEPPGILAPQPPDVGSSDPLSMVGPSQGRSPSYAS",1.1 nM
8,S71C Met-FGF21 (ligand) MHPIPDSSPLLQFGGQVRQRYLYTDDAQQTEAHLEIREDGTVGGAADQSPESLLQLKALKPGVIQILGVKTCRFLCQRPDGALYGSLHFDPEACSFRELLLEDGYNVYQSEAHGLPLHLPGNKSPHRDPAPRGPARFLPLPGLPPALPEPPGILAPQPPDVGSSDPLSMVGPSQGRSPSYAS,3 nM
9,Q27E Met-FGF21 (ligand) MHPIPDSSPLLQFGGQVRQRYLYTDDAEQTEAHLEIREDGTVGGAADQSPESLLQLKALKPGVIQILGVKTSRFLCQRPDGALYGSLHFDPEACSFRELLLEDGYNVYQSEAHGLPLHLPGNKSPHRDPAPRGPARFLPLPGLPPALPEPPGILAPQPPDVGSSDPLSMVGPSQGRSPSYAS,2.2 nM
10,M168L Met-FGF21 (ligand) MHPIPDSSPLLQFGGQVRQRYLYTDDAQQTEAHLEIREDGTVGGAADQSPESLLQLKALKPGVIQILGVKTSRFLCQRPDGALYGSLHFDPEACSFRELLLEDGYNVYQSEAHGLPLHLPGNKSPHRDPAPRGPARFLPLPGLPPALPEPPGILAPQPPDVGSSDPLSLVGPSQGRSPSYAS,1.4 nM
11,(des N121) Met-FGF21 (ligand) MHPIPDSSPLLQFGGQVRQRYLYTDDAQQTEAHLEIREDGTVGGAADQSPESLLQLKALKPGVIQILGVKTSRFLCQRPDGALYGSLHFDPEACSFRELLLEDGYNVYQSEAHGLPLHLPGKSPHRDPAPRGPARFLPLPGLPPALPEPPGILAPQPPDVGSSDPLSMVGPSQGRSPSYAS,1 nM
12,"(145aP, 145bM, L146V, P149E, G151E, I152D, A154R, P155G, Q156H, P157L, P158E, D159S, V160D, G161M, S162F, D164S, S167E, M168T, V169D, G170S, P171M, S172D, … (ligand) MHPIPDSSPLLQFGGQVRQRYLYTDDAQQTEAHLEIREDGTVGGAADQSPESLLQLKALKPGVIQILGVKTSRFLCQRPDGALYGSLHFDPEACSFRELLLEDGYNVYQSEAHGLPLHLPGNKSPHRDPAPRGPARFLPLPGLPPAPMVPEEPEDLRGHLESDMFSSPLETDSMDPFGLVTGLEAVRSPSFEK",17 nM
13,"(166F, 167G, 168L, 169aT, 171L, 172E, 173A, 174V, 179F, 180E, 181K) (Compound Z) (ligand) MHPIPDSSPLLQFGGQVRQRYLYTDDAQQTEAHLEIREDGTVGGAADQSPESLLQLKALKPGVIQILGVKTSRFLCQRPDGALYGSLHFDPEACSFRELLLEDGYNVYQSEAHGLPLHLPGNKSPHRDPAPRGPARFLPLPGLPPALPEPPGILAPQPPDVGSSDPFGLVTGLEAVRSPSFEK",1 nM

# From patent publication US20100216715A1 (Novo Nordisk, published 2010)
